The source of these data is the PETadex activity labels.

Substrate in this data set: BHET
As to conditions: 120 h.

B1: unnamed (protein)
chain: MMKSIIARLAIGTSVLLFSVSAFSFTPGPTPDPDPDPNPNPCEVDCDFSRGPNPTASYLEAASGPYTVRTMRVSSSVTGFGGGTIHYPTGTTGKMGAIAVVPGFLAGESSISWWGPRLASHGFVVITIATNSAFDQPASREAQLGRALDYVIAQSNASGNAISGMVDSSRVGAMGWSMGGGGTLRIASGGRLSAAIPLAPWHTGSNDFNQISTPTMIIACENDGTAPVNSHASPFYNRIPASTDKAYLEINNGGHSCANGGGSNGGLLGKYGVSWMKRFIDKDTRYNQFLCGPNHASNSAISEYRETCNY
Consider B1, for which the plate clearing result is “not clears the plate”.

B2: unnamed (protein)
chain: MFDDMNHTTQSKFSRLLQVSLATSALALSLGVQAQQTGADPTTASIEQAGPLAVANVKVATPSGYGSGTVYYPTTGSAYGLVSVTPGFTEGQSAINWLGPLLASHGFVVVTIGTKTILDVPTNRAKQMMAALAQVTALSATKTSPFAGKVDASRLAVMGHSMGGGGSLDAARDNPNLKASIPLAPWETTKDYSKTTVPTLIVSCESDAIAPVKDHANKFYDSFTPTLTKALLEMKGASHFCTNSSANAATKTLIGKYSISWLKRFVDGDTRYSPFLCGAPHQADLAGSLISTYKENCPY
Take B2: the plate clearing result is given as “not clears the plate”.

B3: unnamed (protein)
chain: MVRGVRAALRLASLVAVAVLPACGSGGGSSPTPASTPMATPIAPTPAPTLAPAPPTSPPFTRGPAPSTSALEATEGPFAVAQLTIDRTAAAGYGAGTVSYPTDTREGPFGAIAVSPGYTGVQRSMQWFGPRLASHGFVVIVIDTLSLTNNAEARAAQLIAALNQLIALSGTSGHPLQGKVDGNRLGVIGHSYGGGGALVAARDNPALKAAVPLAPFYESNDFSRLTVPTLVVGCQRDTVAAVSQRAIPMYESIPASVSKAYLELAGGDHLCVETGNGNKAIQGKYTVAWMKRFLDDDVRYSPYLCGSPHQADLAGDAVSAYRETCPY
In the case of B3, the plate clearing entry is given as “not clears the plate”.

B4: unnamed (protein)
chain: MRTRGTRPLRRLAAIFLLALVIAACDTKGPDPTEQILTASSGPFGVATLAVPSSAGFGGGTIYYPTGVEGPFAVISVTPGFTETAASLDWGPRLASHGFVAIVINTSNIFEDPTTRSNEQRQALTYAAAQSDSASSPIHGLVDGNRRGVTGHSMGGGGTLISAQADPAIRAAVPLAPWNGSPTFSGITVPTLFIACQNDVIAPVANHASPMYNSIPASTHKSYLSIAGGDHFCANAASGGSGQVGKFVVAFFKRFLDGDTRYDPWVCGASKPAVTSVINEVRSTCPF
As for B4, the plate clearing entry is recorded as “not clears the plate”.

B5: unnamed (protein)
chain: MNALSWTPSPTPNPDPTPDPTPCQGDCDFTRGPNPTLSSVATMGPYSVSTQSVSSSVSGFGGGTIHFPTNTAGTMGAIAVAPGFLSPESSIKWWGPRLASHGFVVITIATNSVFDQPNSRETQISRALDYVINQSNSSNSAISGMVDNTRVGAMGWSMGGGGALRLASGDRLSAAIPLAPWHQGSNSFNQLETPTLIIACENDVVAPVNNHASPFYNAIPSTTDKALLEINNGAHSCANGGGTNGGLLTKYGVSWMKRFIDNDLRYDQFLCGPDHAANNAVSEYRGTCNY
Regarding B5, the plate clearing entry was “not clears the plate”.

B6: unnamed (protein)
chain: MNKSILEKMVVGTSALLFSLSAFSFTPDPTPDPDPEPEPCQGECDFTRGPAPTSSYLEASSGPYSVDTVGVSRSVSGFGGGTIYYPTSTSGTMGAIAIVPGFLAGESSISWWGPRLASHGFVVITIATNSTFDQPASRSTQLSRALDYVVSQSNSNSSPISGKVDSTRLGAMGWSMGGGGALRLASGNRLAAAIPLAPWNTGSNSFNQIDTPTLIFACENDTTARVGTHASPFYNRIPASTDKAYLEINNGSHSCANGGGSNGGLLGKYGVSWMKRFIDEDTRYSQFLCGPNHEANSAISEYRETCNY
Turning to B6, the plate clearing result is recorded as “not clears the plate”.

B7: unnamed (protein)
chain: MKHDRRYRWGRLAGLAALLLAPVAAQAQTVLFSEDFEGGLGAFSAGGNVFTATVFNGTSGVRLRGGSSDGVITSPPISTEGFSEVTLFFERTTDGSLDFGEFGIAEVSVDGGATFAVVEATQGGPAAVSIPLGAAAADQAAVVLRFRIAASSFFEDIEVDNVVLEGVGSGDPGPGPDPDPGPDPDPDPDPEPEPDNPFARGPDPTEATLEASSGPFAVDSFRPSSTPGFGAGTIWYPSGTNEGPFAAIAVAPGFVGGESTIDWLGSRLASHGFVVITISTSSLFDFPDSRASQLLAALDIVIAESNGSSPISGLVDPDRTGLSGHSMGGGGSLIATEDHPSIDAVVPLAPWNPSTNFSAIDQPTLIVACENDTVAPVNQHASPMYESISSSVDKAFLEIDGADHFCVNSGNAQQDTLGKFIVSWMKRFLDQDTRYDPFLCGPDHEADPDISEFRDTCPF
On to B7, for which the plate clearing result is “not clears the plate”.
